Measurements reported in PMC5771398, “Structural basis for assembly of the CBF3 kinetochore complex” (The EMBO Journal, 2017).
Numbering of substitutions follows the chain as printed.

What was measured:
Conditions in all cases: protein: recombinant;recombinant;recombinant; tags: C-terminal TEV-cleavable double-StrepTactin tag (cleaved);;; chain copies: 2;1;1; blunt (annealed; only one strand given)
[1] = molecular target: Cep3 deltaGal4;Ctf13;Skp1 (wild type) (Saccharomyces cerevisiae;Saccharomyces …, UniProt P40969;P35203;P52286 47-608;1-478;1-194, ||); test: EMSA; lambda phosphatase, 1 mM MnCl2; 0.3-1 uM protein; EMSA: complex (final buffer 10 mM HEPES, 300 mM NaCl, 1 mM DTT) mixed with DNA, 200 units lambda phosphatase and 1 mM MnCl2, 30 C 30 min, 0.8% agarose gel in TBE; binding pH not stated
Chain of Cep3 deltaGal4;Ctf13;Skp1 (wild type) (P40969 47-608, stated change not applied, chain 1 of 3): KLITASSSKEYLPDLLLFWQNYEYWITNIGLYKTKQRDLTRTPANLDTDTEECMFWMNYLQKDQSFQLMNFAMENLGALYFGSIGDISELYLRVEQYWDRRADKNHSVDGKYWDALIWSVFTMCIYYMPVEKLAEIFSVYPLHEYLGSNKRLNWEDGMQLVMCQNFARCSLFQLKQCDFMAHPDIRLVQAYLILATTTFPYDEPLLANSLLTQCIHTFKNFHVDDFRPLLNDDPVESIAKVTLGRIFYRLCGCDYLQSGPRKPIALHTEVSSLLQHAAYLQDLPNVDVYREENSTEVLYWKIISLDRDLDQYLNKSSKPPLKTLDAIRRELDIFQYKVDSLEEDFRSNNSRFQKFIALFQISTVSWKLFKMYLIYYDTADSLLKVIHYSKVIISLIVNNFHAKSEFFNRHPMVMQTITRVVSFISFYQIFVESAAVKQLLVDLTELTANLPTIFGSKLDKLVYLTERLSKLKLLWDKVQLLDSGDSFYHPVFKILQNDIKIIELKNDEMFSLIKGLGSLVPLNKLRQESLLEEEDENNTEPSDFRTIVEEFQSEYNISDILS
Chain of Cep3 deltaGal4;Ctf13;Skp1 (wild type) (P35203 whole entry, stated change not applied, chain 2 of 3, the tested form may be a part): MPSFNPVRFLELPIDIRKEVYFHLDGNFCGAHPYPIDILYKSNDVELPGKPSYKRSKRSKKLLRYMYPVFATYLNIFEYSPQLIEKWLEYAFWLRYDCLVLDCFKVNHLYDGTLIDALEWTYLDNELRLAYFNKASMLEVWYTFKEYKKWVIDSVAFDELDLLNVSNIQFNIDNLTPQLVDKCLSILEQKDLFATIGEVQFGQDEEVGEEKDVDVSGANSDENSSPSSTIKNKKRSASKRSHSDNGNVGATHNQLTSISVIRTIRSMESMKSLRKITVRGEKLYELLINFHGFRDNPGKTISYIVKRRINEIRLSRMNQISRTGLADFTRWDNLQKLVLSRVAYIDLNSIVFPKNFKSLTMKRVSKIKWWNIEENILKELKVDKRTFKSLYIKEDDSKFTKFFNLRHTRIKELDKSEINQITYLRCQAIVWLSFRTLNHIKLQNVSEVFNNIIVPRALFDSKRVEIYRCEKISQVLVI
Chain of Cep3 deltaGal4;Ctf13;Skp1 (wild type) (P52286 whole entry, stated change not applied, chain 3 of 3, the tested form may be a part): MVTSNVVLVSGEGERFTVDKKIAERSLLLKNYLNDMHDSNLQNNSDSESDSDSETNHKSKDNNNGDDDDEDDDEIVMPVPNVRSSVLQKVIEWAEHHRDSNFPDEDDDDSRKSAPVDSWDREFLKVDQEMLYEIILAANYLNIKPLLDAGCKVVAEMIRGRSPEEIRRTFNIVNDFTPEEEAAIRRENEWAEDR

Cep3 (wild type, core …) [2] = molecular target: Cep3 (wild type, core complex);Ctf13;Skp1delta (Saccharomyces cerevisiae;Saccharomyces …, UniProt P40969;P35203;P52286 1-608;1-478;1-194, ||del37-64); test: EMSA; no lambda phosphatase; 1 uM protein, 0.1 uM DNA; EMSA: complex (final buffer 10 mM HEPES, 300 mM NaCl, 1 mM DTT) mixed with DNA, 200 units lambda phosphatase and 1 mM MnCl2, 30 C 30 min, 0.8% agarose gel in TBE; binding pH not stated
Chain of Cep3 (wild type, core complex);Ctf13;Skp1delta (P40969 whole entry, stated change not applied, chain 1 of 3): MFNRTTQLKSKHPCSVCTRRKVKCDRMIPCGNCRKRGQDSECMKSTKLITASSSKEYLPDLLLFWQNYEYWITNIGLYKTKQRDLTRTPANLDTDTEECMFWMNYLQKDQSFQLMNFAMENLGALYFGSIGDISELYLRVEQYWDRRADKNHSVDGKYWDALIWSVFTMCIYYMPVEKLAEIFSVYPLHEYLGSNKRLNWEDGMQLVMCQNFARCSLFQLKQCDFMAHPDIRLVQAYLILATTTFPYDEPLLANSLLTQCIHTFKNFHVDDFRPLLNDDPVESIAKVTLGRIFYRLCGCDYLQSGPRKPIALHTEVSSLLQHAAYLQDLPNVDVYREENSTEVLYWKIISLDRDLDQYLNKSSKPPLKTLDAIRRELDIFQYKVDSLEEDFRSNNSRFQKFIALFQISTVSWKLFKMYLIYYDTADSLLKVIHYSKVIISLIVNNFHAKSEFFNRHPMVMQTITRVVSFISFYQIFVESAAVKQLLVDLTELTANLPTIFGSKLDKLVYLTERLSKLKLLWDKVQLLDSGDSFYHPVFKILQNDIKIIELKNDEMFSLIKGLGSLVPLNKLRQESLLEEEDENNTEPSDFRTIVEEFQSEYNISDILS
Chain of Cep3 (wild type, core complex);Ctf13;Skp1delta (P35203 whole entry, stated change not applied, chain 2 of 3): as the sequence (P35203 whole entry, stated change not applied, chain 2 of 3, the tested form may be a part) above
Chain of Cep3 (wild type, core complex);Ctf13;Skp1delta (P52286 other isoform, or with tags, fused parts or gaps ||del37-64 | mutant, chain 3 of 3): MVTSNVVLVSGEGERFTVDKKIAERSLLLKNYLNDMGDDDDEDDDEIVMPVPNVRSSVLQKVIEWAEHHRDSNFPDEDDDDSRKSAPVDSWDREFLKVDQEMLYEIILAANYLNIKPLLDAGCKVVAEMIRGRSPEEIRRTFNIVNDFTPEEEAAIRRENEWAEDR

Cep3 (wild type, core …) [3] = molecular target: T1, Cep3 (wild type, core complex);Ctf13;Skp1 (wild type) (Saccharomyces cerevisiae;Saccharomyces …, UniProt P40969;P35203;P52286 1-608;1-478;1-194, ||); test: EMSA; lambda phosphatase, 1 mM MnCl2; 0.3-1 uM protein, 0.1 uM DNA; EMSA: complex (final buffer 10 mM HEPES, 300 mM NaCl, 1 mM DTT) mixed with DNA, 200 units lambda phosphatase and 1 mM MnCl2, 30 C 30 min, 0.8% agarose gel in TBE; binding pH not stated
T1 sequence (P40969 whole entry, chain 1 of 3): as the sequence (P40969 whole entry, stated change not applied, chain 1 of 3) above
T1 sequence (P35203 whole entry, chain 2 of 3): as the sequence (P35203 whole entry, stated change not applied, chain 2 of 3, the tested form may be a part) above
T1 sequence (P52286 whole entry, chain 3 of 3): as the sequence (P52286 whole entry, stated change not applied, chain 3 of 3, the tested form may be a part) above

Cep3 (wild type, core …) [4] = molecular target: T1, Cep3 (wild type, core …); test: competition; EMSA, competitor 0.4-1.2 uM vs 0.1 uM N2; same effect as CCG mutant; EMSA: complex (final buffer 10 mM HEPES, 300 mM NaCl, 1 mM DTT) mixed with DNA, 200 units lambda phosphatase and 1 mM MnCl2, 30 C 30 min, 0.8% agarose gel in TBE; binding pH not stated
Cep3 (wild type, core …) [5] = molecular target: T1, Cep3 (wild type, core …); test: competition; EMSA, competitor 0.4-1.2 uM vs 0.1 uM N2; EMSA: complex (final buffer 10 mM HEPES, 300 mM NaCl, 1 mM DTT) mixed with DNA, 200 units lambda phosphatase and 1 mM MnCl2, 30 C 30 min, 0.8% agarose gel in TBE; binding pH not stated

B1: 56 bp WT CEN3 (dsDNA)
DNA 1: TATTAGTGTATTTGATTTCCGAAAGTTAAAAAAGAAATAGTAAGAAATATATATTT
DNA 2: AAATATATATTTCTTACTATTTCTTTTTTAACTTTCGGAAATCAAATACACTAATA
binding result [1]: no binding | binding result (Cep3 (wild type, core …) [2]): binds | binding result (Cep3 (wild type, core …) [3]): binds

B2: 33 bp double mutant CEN3 (dsDNA)
DNA 1: AAATATTAGAACATTTGATTTGATAAAGTTAAA
DNA 2: TTTAACTTTATCAAATCAAATGTTCTAATATTT
binding result (Cep3 (wild type, core …) [4]): no binding

B3: 33 bp wild-type CEN3, unlabelled competitor (dsDNA)
DNA 1: AAATATTAGTGTATTTGATTTCCGAAAGTTAAA
DNA 2: TTTAACTTTCGGAAATCAAATACACTAATATTT
binding result (Cep3 (wild type, core …) [5]): binds

B4: 33 bp CCG mutant CEN3 (dsDNA)
DNA 1: B2 DNA 1 with A10T, A11G, C12T
DNA 2: B2 DNA 2 with G22A, T23C, T24A
binding result (Cep3 (wild type, core …) [5]): no binding
